# From the nanobody polyreactivity screen of Harvey et al. (2022)
# Test: yeast display, Sf9 membrane polyspecificity reagent, FACS + sequencing; frameworks hold sequencing errors
# Procedure, shortened: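 Nanobodies came from a synthetic yeast display library in Saccharomyces cerevisiae BJ5465, induced with galactose for 36–48 hours and stained for 1 hour at 4 °C with 10% biotinylated, detergent-solubilized Sf9 membrane reagent. Cells were enriched on streptavidin microbeads and then FACS-sorted, with low and high (top ~1%) gates set on anti-HA fluorescence for expression and streptavidin fluorescence for reagent binding. Each polyreactivity label reflects the gate a clone came from. Genes were amplified by colony PCR, sequenced by MiSeq 2 × 250 and filtered by CDR length.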
sequence,measurement,value
QVPLVESGGGLVQAGGSLRLSCAASGRTFPRYAMGWYRQAPGKERELVATISSGGSTNYADSVKGRFTISLDNAKNTVYLQMNSLKPEDTAVYYCAARYGRTYTRVGYWGQGTQVTVSS,polyreactivity (PSR sort gate),high polyreactivity
QVQLVESGGGLVQAGGSLRLSSAASGFIFRRYAMGWYRQAPGKERELVAAISGSGGRTYYADSVKGRFTISRDNAKNSVYLQMNSLKPEDTAVYYCAADQGSLLYDYWGQGTKVTVSS,polyreactivity (PSR sort gate),high polyreactivity
QVQRVESGGGLVQAGCSLRLSCAASGLIFTRYDMGWNRPAPGKERELVAAISGDGGSTYYAESVKGRFTISRDNAKNTVYLQMNSLKPEDTAVYYCAADSARTPWDDYWGQGTQVTVSS,polyreactivity (PSR sort gate),high polyreactivity
QDQLVESGGGLVQAGGSLRLSFAASGSTFWYNDMGWYRQAPGKERELVASISWSGGDTYYADSVKGRFTISRDNAKNSVYLQMNSLKPEDTEVYYCAKGNNWISRLMDYWGQGTQVTVSS,polyreactivity (PSR sort gate),low polyreactivity
QVQLVVSGGGLVHAGGSLRLSCAAYGFTVYKNTMGWYRQAPRKERELVAAISSSGSSTYYADTVKGRFTISRDNAKNTVYLQMNSLKPEDTAVYYCAAGRFAYHDDYWGQGTQVTVSS,polyreactivity (PSR sort gate),high polyreactivity
QVQLVESGGGLVQAGGSLRLSCAASGFTFWYYAMGWYRQAPGKDRELVASISASGGRTNYADSVKGRFTISRDNAKNTVYLQMNSLKPDDTAVYYCNAASLIAAYGDYYWGQGTQVTVSS,polyreactivity (PSR sort gate),high polyreactivity
QVQLVESGGGLVQAGGSLRLSCAASGFIFPGYAMGWYRQAPGKERELVAAISRSGGITYYADSVKGRFTISRDNAKNTVYLQMNSLKPEDTAVYYCAARDRVRDDYWGQGTQVTVSS,polyreactivity (PSR sort gate),high polyreactivity
QVQLVESGGGLGQAGGSLRLSCAASGSIFPEYVMGWNRQAPGKERELVAAISWSGGSTYYADSVKGRFTISRDNAKNPVFLQMNSLKPEDTAVYYCNRVPSWRIDYDYWGQGTQVTVSS,polyreactivity (PSR sort gate),low polyreactivity
QVQLVEAGGGLVQAGGSLRLSCAPSGFICYYYGMGWYRQAPGKDREVVASIRSGGSTNYADSVKGRFTISRDNAKNTGYLQMNWLKPEDTAVYNCAASLLNRISNYDYWGQGTQVTVKS,polyreactivity (PSR sort gate),high polyreactivity
QVQLVESGGGLVQAGGSLRLSCAASGSIFSRNTMGWYRQAPGKERELVAGISSSGSRTYYADSVKGRFTISRDNAKYTVYLQMNSLKPEDTAVYYCAAEHQRSRGRRYYIGYDYWGQGTQVTVSS,polyreactivity (PSR sort gate),low polyreactivity
QDQLVESGGSLVQAGGSLRLSCASSGSIFKGNVMGCYRQAPGKERELVAAITWSAGSTYYADSVKGRFTISRDNAKNTVYLQMNRLKPEDTAVYYCNTDRYHGVDFDYWGQGTQVSVSS,polyreactivity (PSR sort gate),high polyreactivity
QVQLVESGGGLVLAGGRLRLSCAASGFTFGPYAMGWSRQAPGKERELVAAISQSGGRTSYAVSVKGRFTISRDNGKNTVYLQMNSLKPEDTAVYYCAKRANGYRSIYRMDYWGQGTQVTVSS,polyreactivity (PSR sort gate),high polyreactivity
QVQLVESGGGLVQAGGSLRLSCAASGSTFYYYAMGWYRQAPGKERELVAAINSGGRTNYADSVKGRFTISRDNAKNTVYLQMNSLKPEDTAVYYCAKRTYPYGTYRSVWGYDYWGQGTQVTVSS,polyreactivity (PSR sort gate),low polyreactivity
QVQLVESGGGLVQAGGSLRLSCAASGRIFIRNAMGWYRQAPGKERELVAAITQSGGSTYYADSVKGRFSISRVYAKNTVYLQMNSLKPEDTAVYYCNAVRYNCVGYDYWGQGTQVTVSS,polyreactivity (PSR sort gate),high polyreactivity
QVQLVESGGGLVQAGGSLRLSCAASGRILFGYAMGWYRQAPGKERELVADITSTGSTNYADSVKGRFTISRDNAKNTVYLQMNSLKPEDTAVYYCNARRESYYQRYRVDYWGQGTQVNVSS,polyreactivity (PSR sort gate),low polyreactivity
QVQLVESGGGLVQAGGSLRLSCAASGRTFTYNAMGWYRQAPGKERELVAAITYRGGSTYYADSVKGRFTISRDNSNNTVYLQMNSLKPEDTAVYYCAASVSYYRYNTPHYYYWGQGTQVTVSS,polyreactivity (PSR sort gate),high polyreactivity
QVQLVESGGGLVQAGGSLRLSCAASGSIFFGNAMGWYRQAPGKERELVAAISSRGTSTYYADSVKGRFTISRDNAKNTVYLQMNSLKPEDTAVYYCNKRVRTFRGGPLAGYDYWGQGTQVTVSS,polyreactivity (PSR sort gate),high polyreactivity
QVQLVESGGGLVQAGGSIRLSCAASGRIFRYNAMGWYRQAPGKERELVAAISGSGDRTYYADSVKGRFTISRDTAKNTVYLQMNSLKPEDTAVYDCAADVVWRQYGSWFYYWGQGTQVTVSS,polyreactivity (PSR sort gate),high polyreactivity
QVQLVESGGGLVQAGGSLRLSCAASGLTFKYYTMGWYRQAPGKERELVADISRTGRTSYADSVKGRFTISRDNAKNTVYLQMNSLKPEDTAVYYCNALAGIAQRRTGYYNPGDYWGQGTQVTVSS,polyreactivity (PSR sort gate),high polyreactivity
QVQLVESGGGLVQAGGSLRLSCAASGSTFDYYDMGWYRPAPGKERELVAAISSGGDSTYYADSVKGRFTISRDNAKNTVYLQFNSLKPEDSAVYYCAAPDESYSVWRLDGLDYWGQGTQVTVSS,polyreactivity (PSR sort gate),high polyreactivity
QVQLVESGGGLVQAGGSLRLSCAASGYTFGFYGMGWYRQAPGKERDLVAAISRSGGGSTYYADSVKGRFTISRDNAKNTVYLQMNSLKPEDTAVYYCNRDFDDEMWGQGTQVTVSS,polyreactivity (PSR sort gate),low polyreactivity
QVQLVESGGGLVQAGGSLRLSCAASGSISYSNAMGWYRQAPGKERELVAAISWSTGRTYYADSVKGRFTISRDNAKNTVYLQMNSLKPEDTAVYYCATRLYPGGPYDYWGQGTQVTVSS,polyreactivity (PSR sort gate),high polyreactivity
